Data published in patent US20200191797A1.

B1: recombinant cod allergen Gad m 1 (cod parvalbumin) (protein, UniProt Q90YK9 1-109, looked up, not shown: small tags and cut ends)
chain: MAFAGILNDADITAALAACKAEGSFDHKAFFTKVGLAAKSPADIKKVFEIIDQDKSDFVEEDELKLFLQNFSAGARALSDAETKVFLKAGDSDGDGKIGVDEFGAMIKA
B2: recombinant aldolase A of grass carp Ctenopharyngodon idella (enzyme, not shown: small tags and cut ends)
chain: MPHAYPFLTPEQKKELSDIALRIVAPGKGILAADESTGSVAKRFQSINAENTEENRRLYRQLLFTADDRVKPCIGGVILFHETLYQKADDGKLFSQLLKERGMVVGIKVDKGVVPLAGTNGETTTQGLDGLYERCAQYKKDGADFAKWRCVLKITSTTPSRLAIIENANVLARYASICQMHGIVPIVEPEILPDGDHDLKRCQYVTEKVLAAVYKALSDHHVYLEGTLLKPNMVTAGHSCSQKNTPQEIAMATVTALRRTVPPAVPGITFLSGGQSEEEATLNLNAMNKCPLHRPWALTFSYGRALQASALKAWGGKKENGKACQEEFIKRALNNSLACVGKYVSSGDKGAAAGESLFVANHAY

Experiments:
[1] = molecular target: IgE of pooled serum samples (human); experiment: cross-inhibition ELISA; inhibitor 1 ug/ml with pooled sera; C. idella parvalbumin on the plate
[2] = molecular target: IgE of pooled serum samples (human); experiment: cross-inhibition ELISA; inhibitor 50 ug/ml with pooled sera; C. idella parvalbumin on the plate
[3] = molecular target: IgE of pooled serum samples (human); experiment: cross-inhibition ELISA; C. idella parvalbumin on the plate; inhibitor concentration not stated

Row | Binder | % inhibition of IgE binding [1] | % inhibition of IgE binding [2] | % inhibition of IgE binding [3]
1 | B1 | 40% | 50% | –
2 | B2 | – | – | 10%
